Data reported in paper doi:10.1101/311027 (bioRxiv, 2018).

What was measured:
Spc98 = molecular target: T1, Spc98 (S. cerevisiae, UniProt P53540 1-846); assay: cross-linking
T1 sequence: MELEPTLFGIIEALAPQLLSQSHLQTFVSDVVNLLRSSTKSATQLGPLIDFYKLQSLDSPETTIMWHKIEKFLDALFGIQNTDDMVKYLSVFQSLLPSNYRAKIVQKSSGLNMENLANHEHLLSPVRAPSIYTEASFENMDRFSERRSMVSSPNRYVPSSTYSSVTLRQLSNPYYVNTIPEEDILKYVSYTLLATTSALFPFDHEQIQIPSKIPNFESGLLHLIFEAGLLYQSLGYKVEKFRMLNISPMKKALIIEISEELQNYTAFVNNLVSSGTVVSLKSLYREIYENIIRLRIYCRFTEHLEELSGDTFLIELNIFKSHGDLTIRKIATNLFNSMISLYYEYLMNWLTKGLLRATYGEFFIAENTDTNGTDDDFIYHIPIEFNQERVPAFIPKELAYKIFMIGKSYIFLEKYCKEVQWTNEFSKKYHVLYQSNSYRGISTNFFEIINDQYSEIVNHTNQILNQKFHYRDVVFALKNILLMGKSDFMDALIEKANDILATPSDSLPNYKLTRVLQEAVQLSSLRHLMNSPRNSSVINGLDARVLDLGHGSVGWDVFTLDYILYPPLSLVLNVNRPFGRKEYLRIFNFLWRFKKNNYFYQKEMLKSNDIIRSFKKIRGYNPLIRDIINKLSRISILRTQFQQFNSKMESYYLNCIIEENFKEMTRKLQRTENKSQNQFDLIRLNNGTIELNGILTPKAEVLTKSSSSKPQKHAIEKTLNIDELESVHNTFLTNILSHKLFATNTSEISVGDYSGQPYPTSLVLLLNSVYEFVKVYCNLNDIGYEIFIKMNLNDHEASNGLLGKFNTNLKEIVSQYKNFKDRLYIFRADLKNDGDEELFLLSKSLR

Spc97 = molecular target: T2, Spc97 (S. cerevisiae, UniProt P38863 1-823); assay: cross-linking
T2 sequence: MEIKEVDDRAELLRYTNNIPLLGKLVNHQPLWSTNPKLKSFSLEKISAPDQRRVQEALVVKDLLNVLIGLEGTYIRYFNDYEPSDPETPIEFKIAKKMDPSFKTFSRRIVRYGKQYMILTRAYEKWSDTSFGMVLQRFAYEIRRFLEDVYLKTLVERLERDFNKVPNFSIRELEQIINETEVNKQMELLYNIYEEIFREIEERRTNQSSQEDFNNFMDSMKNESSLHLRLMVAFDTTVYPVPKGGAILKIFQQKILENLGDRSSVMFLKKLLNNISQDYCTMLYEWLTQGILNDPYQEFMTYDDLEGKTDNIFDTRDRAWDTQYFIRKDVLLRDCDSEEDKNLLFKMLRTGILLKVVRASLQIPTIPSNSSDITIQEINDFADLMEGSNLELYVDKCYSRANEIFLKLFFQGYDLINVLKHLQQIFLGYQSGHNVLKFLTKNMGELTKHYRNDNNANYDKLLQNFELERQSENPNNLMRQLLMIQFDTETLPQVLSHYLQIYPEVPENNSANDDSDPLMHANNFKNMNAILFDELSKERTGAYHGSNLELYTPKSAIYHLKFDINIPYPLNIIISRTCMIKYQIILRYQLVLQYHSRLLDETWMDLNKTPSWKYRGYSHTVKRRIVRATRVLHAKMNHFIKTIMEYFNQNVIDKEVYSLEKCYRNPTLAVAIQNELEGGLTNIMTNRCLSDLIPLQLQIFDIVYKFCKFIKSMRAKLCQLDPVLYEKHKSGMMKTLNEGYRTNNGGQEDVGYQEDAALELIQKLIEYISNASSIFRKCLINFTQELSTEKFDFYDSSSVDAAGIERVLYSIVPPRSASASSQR

B1: Spc110^1-401-GST (domain or fragment, S. cerevisiae, UniProt P32380 1-401, looked up)
chain: MDEASHLPNGSLKNMEFTPVGFIKSKRNTTQTQVVSPTKVPNANNGDENEGPVKKRQRRSIDDTIDSTRLFSEASQFDDSFPEIKANIPPSPRSGNVDKSRKRNLIDDLKKDVPMSQPLKEQEVREHQMKKERFDRALESKLLGKRHITYANSDISNKELYINEIKSLKHEIKELRKEKNDTLNNYDTLEEETDDLKNRLQALEKELDAKNKIVNSRKVDDHSGCIEEREQMERKLAELERKLKTVKDQVLELENNSDVQSLKLRSKEDELKNLMNELNELKSNAEEKDTQLEFKKNELRKRTNELNELKIKSDEMDLQLKQKQNESKRLKDELNELETKFSENGSQSSAKENELKMLKNKIAELEEEISTKNSQLIAKEGKLASLMAQLTQLESKLNQRD
- binding result (Spc98): binds
- binding result (Spc97): binds
